Results reported in the Immune Epitope Database (IEDB).

The sequences below were run against HLA-B*07:02 (assay: IEDB peptide-MHC binding, purified MHC/competitive/radioactivity; ≥ and ≤ were set here for values at or beyond the usual limits of such assays). Details: source organism: Bordetella pertussis.

Sequence | IC50
PPRPVAAQV | 17.8 µM
KDYRDKDGG | 69.6 µM
KPAPQPGPQ | 31.7 µM
FVRDGQSVI | 5.56 µM

The sequences below were run against HLA-B*57:01 in the same assay as above. Details: source organism: Bordetella pertussis.

Sequence | IC50
VALASQARW | 0.188 µM
YLRQITPGW | 1.54 µM

The sequences below were run against HLA-B*35:01 in the same assay as above. Details: source organism: Bordetella pertussis.

Sequence | IC50
KPAPTAPPM | 0.019 µM
LPVRGVALV | 69.9 µM
FAILSSTTE | 69.9 µM

The sequences below were run against HLA-B*44:03 in the same assay as above. Details: source organism: Bordetella pertussis.

Sequence | IC50
AEVKVGYRA | 2.36 µM
KEAATIVAA | 15 µM
AEHGEVSIQ | 2.88 µM
SESHNFHAS | 32.7 µM

The sequences below were run against HLA-A*02:01 in the same assay as above. Details: source organism: Bordetella pertussis.

Sequence | IC50
GKLPKPVTV | 69.4 µM

What follows are sequences tested against HLA-B*53:01 in the same assay as above. Details: source organism: Bordetella pertussis.

Sequence | IC50
GAVPGGAVP | 69.9 µM
EPQAELAVF | 4.52 µM
LPVRGVALV | ≥ 78.2 µM
DATFETYAL | 4.9 µM
FAILSSTTE | 47.1 µM
ESYSESHNF | 6.27 µM
GGVPGGAVP | 26.7 µM
